The values that follow come from US20200129639A1 (Seagen, published 2020).

The target of the assay is T1, CD19 (UniProt P15391 20-556, limits assumed).
T1 sequence (looked up): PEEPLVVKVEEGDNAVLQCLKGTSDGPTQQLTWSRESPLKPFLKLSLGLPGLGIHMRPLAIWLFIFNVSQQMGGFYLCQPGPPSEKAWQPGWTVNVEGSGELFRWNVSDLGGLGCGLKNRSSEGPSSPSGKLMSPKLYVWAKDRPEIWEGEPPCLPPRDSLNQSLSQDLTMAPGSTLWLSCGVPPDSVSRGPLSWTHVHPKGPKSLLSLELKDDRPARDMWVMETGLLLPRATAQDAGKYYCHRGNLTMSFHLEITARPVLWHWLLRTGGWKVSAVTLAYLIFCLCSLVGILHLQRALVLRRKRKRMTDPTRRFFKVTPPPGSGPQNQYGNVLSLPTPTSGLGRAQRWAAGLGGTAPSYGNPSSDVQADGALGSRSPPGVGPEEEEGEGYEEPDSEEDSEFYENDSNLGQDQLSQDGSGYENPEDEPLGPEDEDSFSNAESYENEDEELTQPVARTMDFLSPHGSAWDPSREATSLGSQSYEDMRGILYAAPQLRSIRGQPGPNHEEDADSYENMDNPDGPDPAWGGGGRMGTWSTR
The assay can be described thus: cell-based or functional assay.

B1: hBU12 co-conjugate (2 drugs on 1 ADC) (antibody, V domains shown)
VH: QVQLQESGPGLVKPSQTLSLTCTVSGGSISTSGMGVGWIRQHPGKGLEWIGHIWWDDDKRYNPALKSRVTISVDTSKNQFSLKLSSVTAADTAVYYCARMELWSYYFDYWGQGTLVTVSS
VL: EIVLTQSPATLSLSPGERATLSCSASSSVSYMHWYQQKPGQAPRLLIYDTSKLASGIPARFSGSGSGTDFTLTISSLEPEDVAVYYCFQGSVYPFTFGQGTKLEIKR
Consider B1, for which the “Co-Conjugate IC50 (ng/mL), cytotoxicity on Granta-519 cells” value came out at 3 ng/mL and the “Co-Conjugate IC50 (ng/mL), cytotoxicity on SU-DHL-16 cells” value is 0.2 ng/mL.
